Reference: publication PMC9482650, “Quantitative fragmentomics allow affinity mapping of interactomes” (Nature Communications, 2022)

T1: CARD11, Q9BXL7
T1 sequence (Q9BXL7 662-765, limits assumed, looked up): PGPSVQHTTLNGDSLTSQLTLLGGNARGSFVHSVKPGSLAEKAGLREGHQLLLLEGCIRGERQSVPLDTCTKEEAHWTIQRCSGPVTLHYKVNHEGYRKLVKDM

T2: SIPA1L2, Q9P2F8
T2 sequence (Q9P2F8 945-1036, limits assumed, looked up): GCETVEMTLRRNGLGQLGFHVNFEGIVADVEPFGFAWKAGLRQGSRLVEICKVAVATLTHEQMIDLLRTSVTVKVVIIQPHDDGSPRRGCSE

T3: SNTG2, Q9NY99
T3 sequence (Q9NY99 68-166, limits assumed, looked up): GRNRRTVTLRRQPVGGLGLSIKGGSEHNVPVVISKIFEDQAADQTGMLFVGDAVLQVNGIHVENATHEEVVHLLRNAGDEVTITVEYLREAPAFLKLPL

T4: GRIP1_4, Q9Y3R0
T4 sequence (Q9Y3R0 467-571, limits assumed, looked up): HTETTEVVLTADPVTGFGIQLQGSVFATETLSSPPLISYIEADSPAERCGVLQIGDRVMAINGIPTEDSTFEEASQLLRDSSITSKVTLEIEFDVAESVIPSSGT

T5: DFNB31_1, Q9P202
T5 sequence (Q9P202 135-233, limits assumed, looked up): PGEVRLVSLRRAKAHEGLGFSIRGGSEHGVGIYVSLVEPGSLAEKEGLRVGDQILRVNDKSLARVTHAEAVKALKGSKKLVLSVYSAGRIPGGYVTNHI

T6: PARD3B_1, Q8TEW8
T6 sequence (Q8TEW8 196-299, limits assumed, looked up): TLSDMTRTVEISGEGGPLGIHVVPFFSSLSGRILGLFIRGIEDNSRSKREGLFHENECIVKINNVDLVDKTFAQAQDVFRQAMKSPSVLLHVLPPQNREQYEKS

T7: DFNB31_2, Q9P202
T7 sequence (Q9P202 274-371, limits assumed, looked up): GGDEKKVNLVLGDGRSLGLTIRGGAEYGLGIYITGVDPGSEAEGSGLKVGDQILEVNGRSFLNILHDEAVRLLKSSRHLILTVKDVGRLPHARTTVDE

T8: PDZD7_3, Q9H5P4
T8 sequence (Q9H5P4 857-944, limits assumed, looked up): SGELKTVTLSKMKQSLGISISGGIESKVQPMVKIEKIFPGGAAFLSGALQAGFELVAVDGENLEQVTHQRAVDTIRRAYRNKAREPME

T9: LNX2_2, Q8N448
T9 sequence (Q8N448 334-432, limits assumed, looked up): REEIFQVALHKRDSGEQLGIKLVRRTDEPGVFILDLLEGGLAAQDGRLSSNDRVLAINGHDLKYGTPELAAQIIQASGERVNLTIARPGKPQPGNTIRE

T10: PTPN13_1, Q12923
T10 sequence (Q12923 1088-1188, limits assumed, looked up): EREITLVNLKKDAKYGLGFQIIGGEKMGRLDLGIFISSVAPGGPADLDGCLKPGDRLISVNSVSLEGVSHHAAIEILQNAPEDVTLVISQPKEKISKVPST

T11: MPP2, Q14168
T11 sequence (Q14168 180-250, limits assumed, looked up): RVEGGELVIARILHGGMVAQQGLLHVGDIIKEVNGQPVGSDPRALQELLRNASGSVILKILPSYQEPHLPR

T12: SHANK1, Q9Y566
T12 sequence (Q9Y566 658-767, limits assumed, looked up): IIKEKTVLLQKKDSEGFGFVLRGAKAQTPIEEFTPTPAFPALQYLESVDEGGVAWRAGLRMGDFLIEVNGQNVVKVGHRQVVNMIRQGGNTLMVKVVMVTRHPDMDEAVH

B1: CDK18, Q07002 (peptide)
chain: RGKNRRQSIF
B2: CAPN6, Q9Y6Q1 (peptide)
chain: VISSDDLTEL
B3: ZNF599, Q96NL3 (peptide)
chain: THHRKIHTRV
B4: WWTR1, Q9GZV5 (peptide)
chain: NKSEPFLTWL

How the values were obtained:
Test in all cases: holdup assay
Set-up in all cases: key: below the threshold = too weak to quantify, mostly under pKd 3.1 to 4
Details in all cases: plain residues with an end cap or a label only (N-terminal biotin on a linker: ado-ado)
[1] = biological target: T1, CARD11, Q9BXL7
[2] = biological target: IL16_1, Q14005
[3] = biological target: NHERF2_2, Q15599
[4] = biological target: T2, SIPA1L2, Q9P2F8
[5] = biological target: DLG4_1, P78352
[6] = biological target: T3, SNTG2, Q9NY99
[7] = biological target: GRID2IP_2, A4D2P6
[8] = biological target: T4, GRIP1_4, Q9Y3R0
[9] = biological target: MAGI2_6, Q86UL8
[10] = biological target: NHERF4_1, Q86UT5-2
[11] = biological target: SCRIB_3, Q14160
[12] = biological target: T5, DFNB31_1, Q9P202
[13] = biological target: LNX1_1, Q8TBB1
[14] = biological target: Inadl_9, Q8NI35
[15] = biological target: T6, PARD3B_1, Q8TEW8
[16] = biological target: GRASP, Q7Z6J2
[17] = biological target: T7, DFNB31_2, Q9P202
[18] = biological target: LDB3, O75112
[19] = biological target: T8, PDZD7_3, Q9H5P4
[20] = biological target: T9, LNX2_2, Q8N448
[21] = biological target: T10, PTPN13_1, Q12923
[22] = biological target: MAGI1_1, Q96QZ7
[23] = biological target: T11, MPP2, Q14168
[24] = biological target: T12, SHANK1, Q9Y566
[25] = biological target: GIPC2, Q8TF65
GIPC2, Q8TF65, sequence (Q8TF65 112-203): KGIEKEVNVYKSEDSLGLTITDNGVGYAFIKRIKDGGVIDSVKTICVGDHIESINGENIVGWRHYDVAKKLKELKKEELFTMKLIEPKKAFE

LNX1_1, Q8TBB1, sequence (Q8TBB1 261-371): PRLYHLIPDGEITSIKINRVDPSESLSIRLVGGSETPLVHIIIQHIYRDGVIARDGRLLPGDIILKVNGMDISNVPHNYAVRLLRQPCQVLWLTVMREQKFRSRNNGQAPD
MAGI1_1, Q96QZ7, sequence (Q96QZ7 1-106): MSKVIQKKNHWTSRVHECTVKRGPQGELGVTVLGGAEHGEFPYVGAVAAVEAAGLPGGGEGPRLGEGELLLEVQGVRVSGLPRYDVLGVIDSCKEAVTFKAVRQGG
GRID2IP_2, A4D2P6, sequence (A4D2P6 272-370): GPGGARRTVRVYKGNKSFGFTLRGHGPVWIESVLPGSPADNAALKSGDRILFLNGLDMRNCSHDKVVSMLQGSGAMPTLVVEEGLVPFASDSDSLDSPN
MAGI2_6, Q86UL8, sequence (Q86UL8 1141-1229): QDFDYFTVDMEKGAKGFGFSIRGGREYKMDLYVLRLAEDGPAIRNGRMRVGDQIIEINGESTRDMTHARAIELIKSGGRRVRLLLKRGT
GRASP, Q7Z6J2, sequence (Q7Z6J2 96-193): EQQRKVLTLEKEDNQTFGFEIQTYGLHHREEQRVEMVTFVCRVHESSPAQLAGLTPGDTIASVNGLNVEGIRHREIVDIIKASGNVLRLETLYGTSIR
Inadl_9, Q8NI35, sequence (Q8NI35 1530-1615): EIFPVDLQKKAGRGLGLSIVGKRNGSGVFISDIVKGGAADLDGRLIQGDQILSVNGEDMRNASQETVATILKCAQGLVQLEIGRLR
DLG4_1, P78352, sequence (P78352 62-152): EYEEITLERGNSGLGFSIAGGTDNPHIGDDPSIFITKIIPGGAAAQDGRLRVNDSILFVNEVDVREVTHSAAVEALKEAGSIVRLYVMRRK
NHERF2_2, Q15599, sequence (Q15599 142-238): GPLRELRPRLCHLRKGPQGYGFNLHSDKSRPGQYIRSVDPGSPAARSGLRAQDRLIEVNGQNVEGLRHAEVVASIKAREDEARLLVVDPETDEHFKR
SCRIB_3, Q14160, sequence (Q14160 999-1103): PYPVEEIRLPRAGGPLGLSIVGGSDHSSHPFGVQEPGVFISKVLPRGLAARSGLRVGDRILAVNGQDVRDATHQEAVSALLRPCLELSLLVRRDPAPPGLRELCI
IL16_1, Q14005, sequence (Q14005 210-306): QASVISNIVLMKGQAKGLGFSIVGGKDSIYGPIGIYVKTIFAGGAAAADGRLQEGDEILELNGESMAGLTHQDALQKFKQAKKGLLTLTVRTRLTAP
NHERF4_1, Q86UT5-2, sequence (Q86UT5 other isoform, or with tags, fused parts or gaps): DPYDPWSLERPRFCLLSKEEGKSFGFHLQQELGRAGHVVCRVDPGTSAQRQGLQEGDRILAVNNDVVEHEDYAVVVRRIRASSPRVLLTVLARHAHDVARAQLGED
LDB3, O75112, sequence (O75112 1-94): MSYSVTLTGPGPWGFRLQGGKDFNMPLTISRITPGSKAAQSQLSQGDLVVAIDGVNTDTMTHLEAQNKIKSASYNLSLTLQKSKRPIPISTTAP

Row | Binder | pKd [1] | pKd [2] | pKd [3] | pKd [4] | pKd [5] | pKd [6] | pKd [7] | pKd [8] | pKd [9] | pKd [10] | pKd [11] | pKd [12] | pKd [13] | pKd [14] | pKd [15] | pKd [16] | pKd [17] | pKd [18] | pKd [19] | pKd [20] | other results
1 | B1 | below the threshold | below the threshold | below the threshold | below the threshold | below the threshold | below the threshold | below the threshold | below the threshold | below the threshold | 3.87 | 3.65 | below the threshold | 3.95 | below the threshold | 3.89 | 3.81 | below the threshold | below the threshold | below the threshold | 3.58 | pKd [21]: below the threshold; pKd [22]: below the threshold; pKd [23]: 3.54; pKd [24]: below the threshold; pKd [25]: below the threshold
2 | B2 | below the threshold | below the threshold | 4.28 | below the threshold | below the threshold | below the threshold | 4.34 | below the threshold | 3.59 | 3.94 | 3.86 | 3.56 | below the threshold | below the threshold | below the threshold | 4.21 | below the threshold | 3.53 | 3.87 | below the threshold | pKd [21]: below the threshold; pKd [22]: below the threshold; pKd [23]: below the threshold; pKd [24]: 4.84; pKd [25]: below the threshold
3 | B3 | below the threshold | 3.48 | below the threshold | below the threshold | 4.98 | 4.13 | 3.8 | below the threshold | below the threshold | 3.72 | 3.75 | 3.82 | 4.06 | 3.58 | below the threshold | 3.76 | below the threshold | below the threshold | 4.53 | 3.82 | pKd [21]: below the threshold; pKd [22]: 3.58; pKd [23]: below the threshold; pKd [24]: 4.01; pKd [25]: 3.56
4 | B4 | below the threshold | below the threshold | 5.27 | below the threshold | 3.49 | below the threshold | 4.65 | below the threshold | 4.9 | 4.46 | 5.14 | 3.85 | 4.13 | 4.23 | 4.57 | 5.28 | below the threshold | 4.47 | 5.12 | 4.44 | pKd [21]: 3.66; pKd [22]: 3.69; pKd [23]: 3.62; pKd [24]: 5.29; pKd [25]: below the threshold
